Results taken from the nanobody polyreactivity screen of Harvey et al. (2022).

assay: yeast display, Sf9 membrane polyspecificity reagent, FACS + sequencing; frameworks hold sequencing errors
Procedure, shortened: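 In a synthetic yeast display library (Saccharomyces cerevisiae BJ5465), nanobody expression was induced with galactose for 36–48 hours. FACS gates were set low and high (top ~1%) using anti-HA fluorescence for expression and streptavidin fluorescence for binding of the Sf9 membrane reagent. Each polyreactivity label is drawn from the gate of origin.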

Sequence | polyreactivity (PSR sort gate)
QVQLVESGGGLVQAGGSLRLSCAASGFIFYSYAMGWYRQAPGKERELVAAISFSGSRTYYADSVKGRFTISRDNAKNTVYLQMNSLKPEDTAVYYCAAYYIASRSTRYYYWGQGTQVTVSS | high polyreactivity
QVQLVESGGGLVQAGGSLRLSCAASGFIFYSYAMGWYRQAPGKERELVAAISRSGGITYYADSVKGRFTISRDNAKNTVYLQMNSLKPEDTAVYYCAKVGRGVSSIKDMDSWGQGTQVTVSS | high polyreactivity
QVQLVESGGGLVQAGGSLRLSCAASGFIFYSYAMGWYRQAPGKERELVAAITSSGGNTYYADSVKGRFTISRDNAKNTVYLQMNSLKPEDSAVYYCAASSRFWTFYYGIILYDYWGQGTQVTVSS | high polyreactivity
QVQLVESGGGLVQAGGSLRLSCAASGFIFYSYPMGWYRKAPGKERALVAAITEDGDSTYYADSVKGRFTISRDNAKNTVYLQMNSLKPVDTAVYYCNTDLTFNGTSGDYDYWGQGTQVTVSS | low polyreactivity
QVQLVESGGGLVQAGGSLRLSCAASGFIFYTYAMGWYRQAPGKERELVAAITWDGGSTYYADSVKGRFTISRDTAKNTVYLQMNSLKPEDTAVYYCNAEYGYIRGNYGYWGQGTQVTVSS | low polyreactivity
QVQLVESGGGLVQAGGSLRLSCAASGFIFYVYAMGWYRQAPGKERELVAAISADGGITYYADSVKGRFTISRDNAKNTVYLQMNSLKPEDTAVYYCNTLGDQDAYAGFRLDYWVQGTQVTVSS | low polyreactivity
QVQLVESGGGLVQAGGSLRLSCAASGFIFYYNAMGWYRQAPGKERELVASISFSGGSTYYADSVKGRFTISRDNAKNTVYLQKNSLKPEDTAVYYCAARYPGGRPWPRYYYWGQGNQVTVSS | high polyreactivity
QVQLVESGGGLVQAGGSLRLSCAASGFIFYYNTMGWYRQAPGKERELVASITWSGDTTYYADSVKGRFTISRDNAKNTVYLQMNSLKPEDTAVYYCAAVHYYTYRRYDYWGQGTQVTVSS | low polyreactivity
QVQLVESGGGLVQAGGSLRLSCAASGFIFYYNVMGWYRQAPGKERELVAAIRYRGTITYYADSVKGRFTISRDNAKNTVYLQMNSLKPEDTAVYYCARRQRNYYRSSPGGDYWGQGTQVTVSS | low polyreactivity
QVQLVESGGGLVQAGGSLRLSCAASGFIFYYYAMGWYRQAPGKERELVAAISRGGSTYYADSVKGRFTISRDNAKNTVYLQMNSLKPEDTAVYYCAAEAFPVYSYYYWGQGTQVTVSS | high polyreactivity
QVQLVESGGGLVQAGGSLRLSCAASGFIFYYYAMGWYRQAPGKERELVAAITSSGGSTYYADSVKGRFTISRDNAKNTVYLQKNSLKPEDTAVYYCAAYYHGRMDYWGQGTQVTVSS | high polyreactivity
QVQLVESGGGLVQAGGSLRLSCAASGFIFYYYAMGWYRQAPGKVRELVAAISTDGGSTYYADSVKGRFTISRDNAKNTVYLQMNSLKPEDTADYYCNAPYYGWGYWPLEYIRYEYWGQGTQVTVSS | low polyreactivity
QVQLVESGGGLVQAGGSLRLSCAASGFIFYYYAMGWYRQAPGKVRELVAGITATGGSTYYADSVKGRFTISRDNAKNTVYLQMNSLKPEDTAVYYCAAEHGRRATYTWWVIYDYLGQGTQVTVSS | low polyreactivity
QVQLVESGGGLVQAGGSLRLSCAASGFIFYYYAMGWYRQAPRKERELVAAISRSGGSTYYADSVKGRFTISRDNAKNTVYLQMNSLKPEDTAVYYCNTVPGTLYFRYDYWGQGTQVTVSS | high polyreactivity
QVQLVESGGGLVQAGGSLRLSCAASGFIFYYYTMGWYRPAPGKERELVAAISRGGGSTYYADSVKGRFTISRDNAKNTVYLQMNSLKPEDTAVYYCALTDRRLGAHQGDYWGQGTQVTVSS | high polyreactivity
QVQLVESGGGLVQAGGSLRLSCAASGFIIARNAMGWYRQAPGKERELVAAISASGGRTYYADSVKGRFTISRDNAKNTVYLKKNSLKPEDTAVYYCAAAVLRYALRFDYWGQGTQVTVSS | high polyreactivity
QVQLVESGGGLVQAGGSLRLSCAASGFIIGSYTMGWYRQAPGKERELVASITKRGGSTYYADSVKGRFTISRDNAKNTVYFQMNSLKPEDTAVYYCAATYWFSHRSRYDYWGQGTQVTVSS | high polyreactivity
QVQLVESGGGLVQAGGSLRLSCAASGFIIHRYAMGWYRQAPGKERELVAVITSGGGSTYYADSVKGRFTISRDNAKNTVYLQMNSLKPEDTAVYYCAAYQPYNSRYRYDYWGQGTQVTVSS | high polyreactivity
QVQLVESGGGLVQAGGSLRLSCAASGFIIKFYAMGWYRQAPGKERELVATITFSSGTTYYADSVKGRFTISRDNAKNTVYLQMNSLKPEDTAVYYCAASTLPAWPYDGPAGPRYDYWGQGTQVTVSS | low polyreactivity
QVQLVESGGGLVQAGGSLRLSCAASGFIIQYYAMGWYRQAPGKERELVAVIRSGGSTYYADSVKGRFTISRDNAKNTVFFQMNSLKPEDTAVYYCIARRTYLDRYNYWGQGTQVTVSS | high polyreactivity
QVQLVESGGGLVQAGGSLRLSCAASGFIIRSYAMGWYRQAPGKERELLAAISSRGGSTYYADSVKGRFTISRDNANNTVYLQINSLKPEDTAVYYCAADWKSKRTDKYDSWGQGTQVTVSS | high polyreactivity
QVQLVESGGGLVQAGGSLRLSCAASGFIIRTYAMGWYRQAPGKERELVAAITGRGGTTYYADSVKGRFTISRDNAKNTVDLQMNSLKPEDTAVYYCAARSRDYNYNPYDYWGQGTQVTVSS | high polyreactivity

Sequence | polyreactivity (PSR sort gate)
QVQLVESGGGLVQAGGSLRLSCAASGFIITSNAMGWYRQAPGKERELVAAITWSGGRTYYADSVKGRFTISRDNAKNTVYLQMNSLKPEDTAVYYCAAGYYKGFTLVRVIFDYWGHGTQVTVSS | low polyreactivity
QVQLVESGGGLVQAGGSLRLSCAASGFIITTYAMGWYRQAPGKERELVAGISSSGGRTYADSVKGRFTISRDNAKNTVYLQMNSLKPEDTAVYYCAREQWRTLVQTDKYKYDYWGQGTQVTVSS | high polyreactivity
QVQLVESGGGLVQAGGSLRLSCAASGFIIWYSAMGWYRQAPGKERELVAAIRSGGSTYYADSVKGRFTISRDNAMNTVYLQMNSLKPEDTAVYYCAAGKNVYYFSRSKYGYDYWGQGTQVTVSS | high polyreactivity
QVQLVESGGGLVQAGGSLRLSCAASGFIIYGYVMGWYRQAPGKERELVAAINSSSGRTYYADSVKGRFTISRDNAKNTVYLQMNSLKPEDTAVYYCAAYYYGSYDGTPYDYRGQGTQVTVSS | low polyreactivity
QVQLVESGGGLVQAGGSLRLSCAASGFIIYRYAMGWYRQAPGKEWELVAAISKRGGSTYYADSVKGRFTISRDNAKNTVYLQMNSLKPEDTAVYYCAANRSYVDSTSFGKAYGYWGQGTQVTVSS | high polyreactivity
QVQLVESGGGLVQAGGSLRLSCAASGFILARYAMGWYRQAPGKERELVAVISSGGSSTFYADSVKGRFTISRDNAKNTVYLQMKSLKPEDTAVYYCAARYKSSKKVGFDYWGQGTQVTVSS | high polyreactivity
QVQLVESGGGLVQAGGSLRLSCAASGFILDNYAMGWYRQAPGKERELVAAISGSGGSTYYADSVKGRFTISRDNAKNTVYLQMNSLKPEDTAVYYCNRDRLLRQYDYWGQGTQVTVSS | high polyreactivity
QVQLVESGGGLVQAGGSLRLSCAASGFILERYAMGWYRQAPGKERELVAAISSVGNTNYADSVKGRFTITRDNAKNTVYLQMNSLKPEDTAVYYCAAEGAFPIYDYWGQGTQVTVSS | low polyreactivity
QVQLVESGGGLVQAGGSLRLSCAASGFILFPYAMGWYRQAPGKERELVAAIRSDDTTYYADSVKGRFTISRDNAKNTVYLQMNSLKPEDTAVYYCNAARTRWATGYDYWGQGTQVTVSS | low polyreactivity
QVQLVESGGGLVQAGGSLRLSCAASGFILGGYAMGWYRQAPGKERELVAAISWSSGSTYYADSVKGRFTISRDNAKNTVYLQMNSLKPEDTAVYYCAAVGAYDYWGQGTQVSVSS | low polyreactivity
QVQLVESGGGLVQAGGSLRLSCAASGFILGHNAMGWYRQAPGKERELVSAITWRGRTYYADSVKGRFTISRDNAKNTVYLHMNSLKPEDTAVYYCASDTKFCYGYWGQGTQVTVSS | high polyreactivity
QVQLVESGGGLVQAGGSLRLSCAASGFILGLNALGWYRHAPGKAWEFVADISWSGDSTYYADSVKGRFTISRDNAKNTVYLQMNSRKPEDTAVYYCPAVWYTSRQKYDYWGQGTQGTVSS | low polyreactivity
QVQLVESGGGLVQAGGSLRLSCAASGFILGSNAMGWYRQAPGKERELVAAISRSGGSTYYADSVKGRFTISRDNAKNTVYLQMNSLKPEDTAVYYCNRVASVRARDYDYWGQGTQVTVSS | high polyreactivity
QVQLVESGGGLVQAGGSLRLSCAASGFILGSNVMGWYRQAPGKERELVAAISYSGGSTYYADSVKGRFTISRDNAKNTVYLQMNSLKPEDTAVYYCARRLTREYDYWGQGSQVTVSS | low polyreactivity
QVQLVESGGGLVQAGGSLRLSCAASGFILGYYAMGWYRQAPGKERELVAAISWNGGRTYYADSVKGRFTISRDNAKNTVYLQMNSLKPEDTAVYYCAVVATVIPWPYDYWGQGTQVTVSS | high polyreactivity
QVQLVESGGGLVQAGGSLRLSCAASGFILIQYAMGWYRQAPGKERELVAAITWSDTSTNYADSVKGRFTISRDNAKNTVYLQMNSLKPEDTAVYYCAAYPVRYYNQYDYWGQGTQVTVSS | low polyreactivity
QVQLVESGGGLVQAGGSLRLSCAASGFILPHYTMGWYRQAPGKERELVAAITSGVSTYYADSVKGRFTISRDNAKNTVYLQMNSLKPEDTAVYYCNALATYIGYKYDYWGQGTQVTVSS | low polyreactivity
QVQLVESGGGLVQAGGSLRLSCAASGFILPIYAMGWYRQAPGKEREFVAAITWTGGSTYYADSVKGRFTISRDNANNTVYLQMNSLKPEDTAVYYCNAEGRSYYYIIYDFWGQGTQVTVSS | high polyreactivity
QVQLVESGGGLVQAGGSLRLSCAASGFILPNYAMGWYRQAPGKERELVAASTYIGGSTYYADSVKGRFTISRDNAKHTVYLQMNSLKPEDTAVYYCAKYWLGYTKYDYWGQGTQVTVSS | low polyreactivity
QVQLVESGGGLVQAGGSLRLSCAASGFILPNYAMGWYRQATGKERELVDAITYIGGSTYYADSVKGRFTISRDNAKNTVYLHMNSLKPEDTAVYYCAKYWLGYTKFDYWGQGTQVTVSS | low polyreactivity
QVQLVESGGGLVQAGGSLRLSCAASGFILPVYAMGWYRQAPGTERELVAAISSGGSTNYADSVKGRFTISRDNAKNTVYLQMNSLKPEDTEVYYCNKVDWYFGGYKYDYWGQGTQVTVSS | low polyreactivity
